These are literature values, as cited in paper PMC12355045.

The target of the series is hemoglobin αβ dimer (Homo sapiens) (UniProt P69905).

Turning to “hemoglobin αβ dimer (from UniProt P69905)”, the Kd is 1000 nM.

As a reminder, the Kd is the concentration at which binding is half-saturated.
